Test results published in article PMC6150290.

Key:
Test in all cases: EMSA
Conditions in all cases: EMSA: 0.5 nM DNA duplex, 20 uL, 10 mM Tris-HCl pH 7.6, 5 mM DTT, 10% (component cut off in material), no NaCl; temperature not in material
C145S hAGT (human) = system: C145S hAGT (human)
[1] = system: S134P OGT (Escherichia coli)
[2] = system: OGT (wild type) (Escherichia coli)

Control (G-C)
Kd (C145S hAGT (human)): 10600 nM | Kd [1]: 860 nM | Kd [2]: 1230 nM
